The experiment deals with Asialoglycoprotein receptor 1 (ASGR1) on the surface of HEPG2 cells (human) (UniProt P07306). Briefly: cell-based or functional assay.
Sequence of UniProt P07306 (P07306 whole entry): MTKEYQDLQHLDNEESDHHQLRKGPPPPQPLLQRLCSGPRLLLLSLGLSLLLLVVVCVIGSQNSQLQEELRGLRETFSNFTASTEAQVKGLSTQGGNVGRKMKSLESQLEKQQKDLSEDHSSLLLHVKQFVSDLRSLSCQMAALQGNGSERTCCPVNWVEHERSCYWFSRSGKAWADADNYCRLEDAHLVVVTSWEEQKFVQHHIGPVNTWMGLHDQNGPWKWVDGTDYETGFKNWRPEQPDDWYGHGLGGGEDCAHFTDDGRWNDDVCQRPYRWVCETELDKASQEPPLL

Turning to “Anti-Asialoglycoprotein Receptor 1/HL-1 antibody (abCAM, Product Number ab49355)”, the improvement of mmu-miR-298-5p uptake efficiency into HEPG2 cells, against unmodified EVs is 60%; the relative quantification of mmu-miR-298-5p in Hep-G2 cells (qRT-PCR, relative ratio to control cells) (relative ratio) was 2000; the relative quantification of mmu-miR-298-5p in Hep-G2 cells, against DharmaFECT transfection is 8 fold.

The record behind these values is US20220088215A1.
